Experimental data published in PMC8253768, “Structural plasticity of mumps virus nucleocapsids with cryo-EM structures” (Communications Biology, 2021).
Several values for one entry are separate records, joined by “and”; a condition that tells them apart may be missing. Identical values can stand only once.

B1: Mumps virus (MuV) nucleoprotein, full length (1–549), freshly purified (natural protein)
chain: MSSVLKAFERFTIEQELQDRGEEGSIPPETLKSAVKVFVINTPNPTTRYQMLNFCLRIICSQNARASHRVGALITLFSLPSAGMQNHIRLADRSPEAQIERCEIDGFEPGTYRLIPNARANLTANEIAAYALLADDLPPTINNGTPYVHADVEGQPCDEIEQFLDRCYSVLIQAWVMVCKCMTAYDQPAGSADRRFAKYQQQGRLEARYMLQPEAQRLIQTAIRKSLVVRQYLTFELQLARRQGLLSNRYYAMVGDIGKYIENSGLTAFFLTLKYALGTKWSPLSLAAFTGELTKLRSLMMLYRGLGEQARYLALLEAPQIMDFAPGGYPLIFSYAMGVGTVLDVQMRNYTYARPFLNGYYFQIGVETARRQQGTVDNRVADDLGLTPEQRTEVTQLVDRLARGRGAGIPGGPVNPFVPPVQQQQPAAVYEDIPALEESDDDGDEDGGAGFQNGVQLPAVRQGGQTDFRAQPLQDPIQAQLFMPLYPQVSNMPNNQNHQINRIGGLEHQDLLRYNENGDSQQDARGEHVNTFPNNPNQNAQLQVGDWDE
notes: Mumps virus nucleoprotein (N), full-length gene 1–549, synthesized by GenScript, cloned into pET28b; Purified with enwrapped endogenous E. coli RNA; Only residues 1–373 are resolved in the maps; also called NWT; MuV nucleoproteins; source: E. coli, purified (nickel-nitrilotriacetic acid resin, Superose 6 gel filtration), freshly made

Legend:
[1] = target: Aged MuV nucleoprotein (NWT kept at 4 °C for 4 weeks, digested by residual impurities) (mumps virus) (UniProt Q77IS8); assay: cryo-EM structure; filaments of NWT after 4 weeks of digestion at 4 °C; helical reconstruction of three classes (NC_(helix-dense), NC_(helix-hyper), N_(ring-stacked) with C13 symmetry); with enwrapped RNA
[2] = target: the molecule itself; assay: cryo-EM structure; single particle analysis of freshly purified NWT rings with enwrapped E. coli RNA; ~1 mg/mL; 20 mM Tris-HCl pH 7.4, 150 mM NaCl; micrographs at 0°, 20° and 40° tilt; 2D classification and refinement with C13 or C14 symmetry

| Molecule | stoichiometry N [1] [protomers] | stoichiometry N [2] |
| --- | --- | --- |
| Aged MuV nucleoprotein (NWT kept at 4 °C for 4 weeks, digested by residual impurities) (from UniProt Q77IS8 1-549) (domain or fragment) | 13 | – |
| B1 | – | 13 protomers and 14 protomers |
